Residue numbers refer to the chain shown, from its start. Values joined by “and” are separate entries in the source; they are usually repeats but may differ in a detail not shown here. Identical values can stand only once. Like-named read-outs stand apart in the source and are kept apart here.
T1: hCD73-his (full length extracellular domain of human CD73, residues 26-546, C-terminal polyhistidine tag) (human, UniProt P21589 26-546)
T1 construct: range 26-546; not shown: C-terminal polyhistidine tag
T1 sequence (looked up): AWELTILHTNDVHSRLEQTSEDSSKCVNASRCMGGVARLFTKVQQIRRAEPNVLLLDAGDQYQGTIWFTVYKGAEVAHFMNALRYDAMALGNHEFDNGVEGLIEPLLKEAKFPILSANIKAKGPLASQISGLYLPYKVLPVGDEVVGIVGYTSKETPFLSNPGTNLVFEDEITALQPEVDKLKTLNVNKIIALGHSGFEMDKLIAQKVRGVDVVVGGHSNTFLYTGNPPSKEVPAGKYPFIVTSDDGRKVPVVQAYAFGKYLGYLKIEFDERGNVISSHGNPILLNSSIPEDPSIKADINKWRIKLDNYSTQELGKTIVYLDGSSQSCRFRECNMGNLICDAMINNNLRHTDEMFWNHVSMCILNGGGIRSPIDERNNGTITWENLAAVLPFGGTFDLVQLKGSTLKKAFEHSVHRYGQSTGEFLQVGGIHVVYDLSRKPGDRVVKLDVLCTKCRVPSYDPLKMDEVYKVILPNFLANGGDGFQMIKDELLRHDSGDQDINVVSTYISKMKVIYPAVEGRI

T2: human CD73 on Calu6 cells (human, UniProt P21589 27-549)
T2 sequence (looked up): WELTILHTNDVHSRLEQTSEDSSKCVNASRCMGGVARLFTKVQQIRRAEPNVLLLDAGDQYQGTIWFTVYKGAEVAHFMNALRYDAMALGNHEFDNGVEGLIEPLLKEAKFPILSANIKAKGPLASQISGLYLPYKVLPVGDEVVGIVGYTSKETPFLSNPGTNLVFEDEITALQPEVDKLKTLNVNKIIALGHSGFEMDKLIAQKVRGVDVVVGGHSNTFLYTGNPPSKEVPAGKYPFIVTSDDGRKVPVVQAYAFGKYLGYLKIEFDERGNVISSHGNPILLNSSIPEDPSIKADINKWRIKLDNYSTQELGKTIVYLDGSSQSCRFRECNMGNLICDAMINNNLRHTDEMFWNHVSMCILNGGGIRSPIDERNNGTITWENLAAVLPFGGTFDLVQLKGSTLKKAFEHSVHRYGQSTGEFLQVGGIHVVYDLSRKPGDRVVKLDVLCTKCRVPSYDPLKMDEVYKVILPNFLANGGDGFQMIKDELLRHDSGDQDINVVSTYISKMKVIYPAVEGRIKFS

B1: CD73.4-IgG2.3-plusTHT (antibody)
heavy: QVQLVESGGGVVQPGRSLRLSCAASGFTFSNYGMHWVRQAPGKGLEWVAVILYDGSNKYYPDSVKGRFTISRDNSKNTLYLQMNSLRAEDTAVYYCARGGSSWYPDSFDIWGQGTMVTVSSASTKGPSVFPLAPCSRSTSESTAALGCLVKDYFPEPVTVSWNSGALTSGVHTFPAVLQSSGLYSLSSVVTVPSSNFGTQTYTCNVDHKPSNTKVDKTVERKSCVETHTCPPCPAPPVAGPSVFLFPPKPKDTLMISRTPEVTCVVVDVSHEDPEVQFNWYVDGVEVHNAKTKPREEQFNSTFRVVSVLTVVHQDWLNGKEYKCKVSNKGLPAPIEKTISKTKGQPREPQVYTLPPSREEMTKNQVSLTCLVKGFYPSDIAVEWESNGQPENNYKTTPPMLDSDGSFFLYSKLTVDKSRWQQGNVFSCSVMHEALHNHYTQKSLSLSPGK
light: not shown
B2: CD73.4-IgG2.3-plusGGG (antibody)
heavy: B1 heavy with T227G, H228G, T229G
light: not shown
B3: CD73.4-IgG2-C219S (antibody)
heavy: QVQLVESGGGVVQPGRSLRLSCAASGFTFSNYGMHWVRQAPGKGLEWVAVILYDGSNKYYPDSVKGRFTISRDNSKNTLYLQMNSLRAEDTAVYYCARGGSSWYPDSFDIWGQGTMVTVSSASTKGPSVFPLAPCSRSTSESTAALGCLVKDYFPEPVTVSWNSGALTSGVHTFPAVLQSSGLYSLSSVVTVPSSNFGTQTYTCNVDHKPSNTKVDKTVERKSCVECPPCPAPPVAGPSVFLFPPKPKDTLMISRTPEVTCVVVDVSHEDPEVQFNWYVDGVEVHNAKTKPREEQFNSTFRVVSVLTVVHQDWLNGKEYKCKVSNKGLPAPIEKTISKTKGQPREPQVYTLPPSREEMTKNQVSLTCLVKGFYPSDIAVEWESNGQPENNYKTTPPMLDSDGSFFLYSKLTVDKSRWQQGNVFSCSVMHEALHNHYTQKSLSLSPG
light: not shown
notes: anti-CD73; also called CD73.4-IgG2.3; CD73.4-IgG2CS
B4: CD73.4-IgG2.3G1-KH (antibody)
heavy: QVQLVESGGGVVQPGRSLRLSCAASGFTFSNYGMHWVRQAPGKGLEWVAVILYDGSNKYYPDSVKGRFTISRDNSKNTLYLQMNSLRAEDTAVYYCARGGSSWYPDSFDIWGQGTMVTVSSASTKGPSVFPLAPCSRSTSESTAALGCLVKDYFPEPVTVSWNSGALTSGVHTFPAVLQSSGLYSLSSVVTVPSSNFGTQTYTCNVDHKPSNTKVDKTVERKSCVECPPCPAPPVAGPSVFLFPPKPKDTLMISRTPEVTCVVVDVSHEDPEVKFNWYVDGVEVHNAKTKPREEQYNSTYRVVSVLTVLHQDWLNGKEYKCKVSNKALPAPIEKTISKAKGQPREPQVYTLPPSREEMTKNQVSLTCLVKGFYPSDIAVEWESNGQPENNYKTTPPVLDSDGSFFLYSKLTVDKSRWQQGNVFSCSVMHEALHNHYTQKSLSLSPGK
light: not shown

Columns and labels:
[1] = biological target: T1, hCD73-his (full length extracellular …); assay: SEC, 5.5 uM each; peak 4: free mAb
Description: (§1) Isocratic separations were performed on a Shodex PROTEIN KW-803 column connected to an Prominence Shimadzu UFLC in buffer containing 200 mM K₂HPO₄, 150 mM NaCl, pH 6.8, containing 0.02% Na azide (0.1 μm filtered) running at 0.5 mL/min. Samples were injected onto the column using a SIL-20AC Prominence Shimadzu autosampler, and data were obtained from three online detectors connected in series: a Prominence SPD-20AD diode array UV/vis spectrophotometer followed by a Wyatt miniDAWN™ TREOS Multi-Angle Light Scattering Detector then a Wyatt Optilab T-rEX Refractive Index Detector. Data were collected and analyzed using Astra (Wyatt) and Labsolutions (Shimadzu) software.
(§2) CD73.4 antibodies having the heavy chain constant regions set forth in Table 14 were also tested for formation of high molecular weight complexes by SEC-MALS and DLS experiments, as described in Example 3.

[2] = biological target: T2, human CD73 on Calu6 cells; assay: cell-based or functional assay
[3] = biological target: T1, hCD73-his (full length extracellular …); assay: SEC, 5.5 uM each; peak 1: complexes larger than 4:4
Description: as §1, with “The oligomeric state of CD73/antibody complexes were examined by size-exclusion chromatography coupled to an in-line multi-angle light scattering detector (SEC-MALS). Isocratic” for “Isocratic”
as §2

[4] = biological target: T1, hCD73-his (full length extracellular …); assay: SEC, 5.5 uM each; peak 2: about 2:2 complexes
Description: as §1, with “The oligomeric state of CD73/antibody complexes were examined by size-exclusion chromatography coupled to an in-line multi-angle light scattering detector (SEC-MALS). Isocratic” for “Isocratic”
as §2

[5] = biological target: T2, human CD73 on Calu6 cells; assay: cell-based or functional assay; remark: listed apart in the source
[6] = biological target: T2, human CD73 on Calu6 cells; assay: cell-based or functional assay; remark: listed apart in the source
[7] = biological target: T1, hCD73-his (full length extracellular …); assay: SEC, 5.5 uM each; peak 3: about 1:1 complexes
Description: as §1, with “The oligomeric state of CD73/antibody complexes were examined by size-exclusion chromatography coupled to an in-line multi-angle light scattering detector (SEC-MALS). Isocratic” for “Isocratic”
as §2

Row | Binder | UV % Peak4 (16.7-19.3 min) [1] [%] | T1/2 (hr) of CD73 internalization, Calu6 cells [2] | T1/2 (hr) of CD73 internalization, NCI-H292 cells [2] | Ymax (%) of CD73 internalization, Calu6 cells [2] [%] | Ymax (%) of CD73 internalization, NCI-H292 cells [2] [%] | UV % Peak1 (<12.9 min) [3] [%] | UV % Peak2 (12.9-15.1 min) [4] [%] | % internalization, Calu6 cells [5] [%] | % internalization, H228 cells [5] [%] | % internalization, H2030 cells [5] [%] | % internalization, HCC15 cells [5] [%] | T1/2 min of internalization, Calu6 cells [5] [min] | T1/2 min of internalization, H228 cells [5] [min] | T1/2 min of internalization, H2030 cells [5] [min] | T1/2 min of internalization, HCC15 cells [5] [min] | T1/2 (hr) of CD73 internalization, Calu6 cells [6] [h] | T1/2 (hr) of CD73 internalization, NCI-H292 cells [6] [h] | Ymax (%) of CD73 internalization, Calu6 cells [6] [%] | Ymax (%) of CD73 internalization, NCI-H292 cells [6] [%] | UV % Peak3 (15.1-16.7 min) [7] [%]
1 | B1 | 33.7 | 0.355 h | 0.293 h | 81.2 | 91.4 | 30.6 |  |  |  |  |  |  |  |  |  |  |  |  |  | 
2 | B2 | 34.9 | 0.336 h | 0.271 h | 81.7 | 91.6 | 30 | 23.9 |  |  |  |  |  |  |  |  |  |  |  |  | 
3 | B3 | 28.6 | 0.372 h and 0.364 h | 0.287 h and 0.284 h |  |  | 37 |  | 88 | 94 | 89 | 94 | 6.5 | 13.8 | 3.7 | 3.1 | 0.6 | 0.277 | 75.6 | 78.4 | 7.7
4 | B4 |  | 0.396 h | 0.28 h | 81.6 | 91.6 | 34.9 | 23.4 |  |  |  |  |  |  |  |  |  |  |  |  | 

Source: patent US20200268901A1 (Bristol-Myers Squibb, published 2020)
